Biological target: T1, full-length human OX40 expressed on HuT78 cells (HuT78/OX40) (human, UniProt P43489 29-277)
T1 sequence: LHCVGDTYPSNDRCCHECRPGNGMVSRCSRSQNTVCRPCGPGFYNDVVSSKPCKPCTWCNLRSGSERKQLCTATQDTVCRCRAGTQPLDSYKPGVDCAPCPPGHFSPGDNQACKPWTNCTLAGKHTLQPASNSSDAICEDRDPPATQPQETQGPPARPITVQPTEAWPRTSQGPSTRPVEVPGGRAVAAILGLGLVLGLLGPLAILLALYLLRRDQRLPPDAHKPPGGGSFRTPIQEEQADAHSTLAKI
Experiment: cell-based or functional assay

ADCC (LDH release), NK92MI/CD16V effector cells, HuT78/OX40 target cells (EC50): 0.027 µg/mL | IL-2 production by HuT78/OX40 cells co-cultured with HEK293/OS8Low-FcγRI cells (EC50): 0.06 ng/mL
B1: 445-3 (antibody, human IgG1, V domains shown)
VH: QVQLVQSGAEVKKPGSSVKVSCKASGYKFTSYIIHWVRQAPGQGLEWMGYINPYNEGTRYNQKFQGRVTLTADKSTSTAYMELSSLRSEDTAVYYCARGYYGSSYAMDYWGQGTTVTVSS
VL: DIQMTQSPSSLSASVGDRVTITCRASQGISNYLNWYQQKPDGAIKLLIYDASTLYSGVPSRFSGSGSGTDFTLTISSLQPEDFATYYCQQYSKLPYTFGGGTKVEIK

Source: patent US20230212291A1 (BEIGENE, published 2023)
